Test results: patent publication US20230398228A1, “ERIBULIN-BASED ANTIBODY-DRUG CONJUGATES AND METHODS OF USE” (EISAI R&D MANAGEMENT CO., LTD., priority 2016, published 2023)
“And” between values parts separate entries of the source, which are not always exact repeats. Equal values may be shown once. Read-outs that look alike come from different tables or passages of the source.

Tests used:
NCI-H2110 cells = settings: Example 1
Description: Typically, test reagents were serial diluted 1:4 in 2 mL deep-well dilution plates, starting at 1 μM (10 dilutions total). 100 μL of diluted samples were added to the cell plates (starting concentration of test samples at 500 nM). […] Medium was discarded, plates were washed once with 200 μL DPBS, stained with 50 μL of 0.2% Crystal Violet solution at room temperature for 15 min, and then washed extensively with tap water. Plates were air-dried, and Crystal Violet was dissolved with 200 μL of 1% SDS solution. Plates were read at 570 nm. Data was analyzed using GraphPad Prism 6. Assays were performed using a seeding density of 1,000 cells per well and compound exposure was for a total of 5 days. When shorter-term exposure was desired, medium containing cytotoxic agents was removed after 4 hours and replaced with fresh growth medium prior to 5-day incubation. For OVCAR3, CaOV3, and NCI-H2110, cells were seeded at 3,000 cells/well and incubated for 5 days with ADC.
SJSA-1 cells are a human osteosarcoma tumor cell line that are negative for folate receptor alpha.
Typically, test reagents were serially-diluted 1:4 in 2 mL deep-well dilution plates, starting at 1 μM (10 dilutions total). 100 μL of diluted samples were added to the cell plates (starting concentration of test samples at 100 nM). […] Medium was discarded, plates were washed once with 200 μL DPBS, stained with 50 μL of 0.2% Crystal Violet solution at room temperature for 15 min, and then washed extensively with tap water. Plates were air-dried, and Crystal Violet was dissolved with 200 μL of 1% SDS solution. Plates were read at 570 nm. Data was analyzed using GraphPad Prism 6.

HL-60 cells = assay: Bystander killing assay, Nuclight Red HL-60; type: cell-based, human
Description: The day before study commencement, Nuclight™ Green (NLG) IGROV1 cells were seeded at 5,000 cells/well into 96-well round bottom plates, followed by centrifugation at 1,000 rpm for 3 min at room temperature to ensure formation of a cell pellet. The plate was placed in the vessel of an Incucyte Zoom® (EssenBio science) and incubated at 37° C./5% CO2 overnight. The program was set to collect images of cell growth, and to determine total numbers of nuclear green-stained and nuclear red-stained cells as well as phase-confluency of the cells every two hours. […] 50 μL of cytotoxin solution was added to the NLG-IGROV1 cells and incubated for 30 min. During the incubation period, Nuclight™ Red (NLR) HL-60 (FR^neg) cells were diluted to 2×10^5, 1×10^5 or 5×10^4 cell/mL with fresh media. 50 μL of the NLR-HL60 cell suspension or medium alone was added to the NLG-IGROV1 wells, followed by centrifugation at 1,000 rpm for 3 min at room temperature to ensure re-formation of the cell pellet. The plate was placed back into the vessel of Incucyte Zoom (EssenBio science) and incubated at 37° C./5% CO2 for up to 5 days. Relative cell growth of NLG-IGROV1 was determined by comparison to no ADC or free drug alone added samples using green cell counts. Relative cell growth of HL60 was done similarly, except that red cell count was determined. Determination of IC50 values for both NLG-IGROV1 and NLR-HL-60 was determined using Prism (GraphPad).
In order to assess bystander killing activity, an assay was set up using two labeled cell lines. […] Cytotoxicity was monitored by an Incucyte Zoom® cell imager.

CaOV3 cells = assay: Crystal Violet cytotoxicity assay (Example 1), CaOV3; type: cell-based, human
Description: Typically, test reagents were serial diluted 1:4 in 2 mL deep-well dilution plates, starting at 1 μM (10 dilutions total). 100 μL of diluted samples were added to the cell plates (starting concentration of test samples at 500 nM). […] Medium was discarded, plates were washed once with 200 μL DPBS, stained with 50 μL of 0.2% Crystal Violet solution at room temperature for 15 min, and then washed extensively with tap water. Plates were air-dried, and Crystal Violet was dissolved with 200 μL of 1% SDS solution. Plates were read at 570 nm. […] Assays were performed using a seeding density of 1,000 cells per well and compound exposure was for a total of 5 days. When shorter-term exposure was desired, medium containing cytotoxic agents was removed after 4 hours and replaced with fresh growth medium prior to 5-day incubation. For OVCAR3, CaOV3, and NCI-H2110, cells were seeded at 3,000 cells/well and incubated for 5 days with ADC.
Screening of selected ADCs was also performed in CaOV3 (human ovarian carcinoma, FR^med(++), NCI-H2110 (human non-small cell lung carcinoma, FR^med(++), and/or OVCAR3 (human ovarian carcinoma, FR^med(++)) cells. The results of this screening are provided in Table 16.

[1] = test system: LXFA-737 NSCLC patient-derived xenograft; assay: NSCLC PDx model LXFA-737; type: in vivo, mouse; settings: for Tumor Growth Inhibition: vehicle = 100
Text: Tumor implantation: NSCLC tumor fragments were obtained from LXFA-737 tumor xenografts serially passaged in nude mice. After removal from donor mice, tumors were cut into fragments (3-4 mm edge length) and placed in phosphate-buffered saline (PBS) containing 10% penicillin/streptomycin. Recipient animals were anesthetized by inhalation of isoflurane and received unilateral or bilateral tumor implants subcutaneously in the flank. Tumor xenografts were implanted with one or two tumors per mouse at a take rate <65%. In the case of a bilateral take, one of these tumors was explanted prior to randomization. Animals and tumor implants were monitored daily until solid tumor growth was detectable in a sufficient number of animals. At randomization, the volume of growing tumors was determined. […] Animals not used for experiments were euthanized.
Body weight was measured prior to dose on each dosing day, and two times per week during the study. At the end of the study, the terminal body weight was measured and recorded.

[2] = Maximum tolerated dose of MORAb-202 in CD-1 mice; type: in vivo, mouse; settings: CD-1 mice
Description: Body weight was measured prior to dose on the dosing day, 24 hours post dose, and three times a week thereafter. […] Two weeks after dosing, the terminal body weight was measured and recorded. Euthanized mice at the end of the study (and if any mouse euthanized or found dead during the study) were processed for necropsy. Organs were examined for signs of tissue damage.

[3] = 5 mg/kg single dose i.v., Day 21, n = 6
[4] = 5 mg/kg single dose i.v., Day 32, n = 6
[5] = 5 mg/kg single dose i.v., Day 74, n = 6

MORAb-003-maleimido-PEG2-Val-Cit-pAB-eribulin [MORAb-202]
cytotoxicity on NCI-H2110 cells, in words (NCI-H2110 cells): potent cytotoxicity | IC50 (NCI-H2110 cells; read-out: IC50 on NCI-H2110): 0.73 nM | EC50 (HL-60 cells; HL-60 (FR-negative) cells alone, read-out: EC50, HL-60): 39.7 nM | EC50 (HL-60 cells; HL-60 co-cultured with IGROV1, read-out: EC50, HL-60 (co-culture with IGROV-1)): 0.24 nM | IC50 (CaOV3 cells; CaOV3 cells, mean of replicate experiments, where performed): 3.7 nM | cytotoxicity on CaOV3 cells, in words (CaOV3 cells; Example 1): potent cytotoxicity | body weight loss versus vehicle, in words ([1]; 5 mg/kg single dose): no significant body weight loss | Tumor Volume [1, 3]: 22.9 mm^3 | Tumor Growth Inhibition [1, 3]: (2.3) % | Tumor Volume [1, 4]: 4.7 mm^3 | Tumor Growth Inhibition [1, 4]: (0.3) % | Tumor Volume [1, 5]: 418.3 mm^3 | tumor-free mice [1, 5]: (4/6 tumor-free) | mice considered tumor-free at Day 32 ([1]; 5 mg/kg single dose, six mice): Five of the six | mice that remained tumor-free through Day 74 ([1]; 5 mg/kg single dose, six mice): four | anti-tumor activity, in words ([1]; 5 mg/kg single i.v. dose): significant tumor regression | Body weight of individual mice ([2]; 10 mg/kg single bolus i.v., day 0 post Rx): 22.60 g and 23.50 g and 21.80 g | Body weight, group mean ([2]; 10 mg/kg single bolus i.v., day 0 post injections): 22.6 g | Body weight of individual mice ([2]; 10 mg/kg single bolus i.v., day 1 post Rx): 22.80 g and 23.80 g | Body weight, group mean ([2]; 10 mg/kg single bolus i.v., day 1 post injections): 23.2 g | Body weight of individual mice ([2]; 10 mg/kg single bolus i.v., day 2 post Rx): 23.30 g and 24.00 g and 22.90 g | Body weight, group mean ([2]; 10 mg/kg single bolus i.v., day 2 post injections): 25.4 g | Body weight of individual mice ([2]; 10 mg/kg single bolus i.v., day 4 post Rx): 23.30 g (2×) and 23.90 g | Body weight, group mean ([2]; 10 mg/kg single bolus i.v., day 4 post injections): 23.5 g | Body weight of individual mice ([2]; 10 mg/kg single bolus i.v., day 7 post Rx): 24.80 g and 25.20 g and 24.90 g | Body weight, group mean ([2]; 10 mg/kg single bolus i.v., day 7 post injections): 25.0 g | Body weight of individual mice ([2]; 10 mg/kg single bolus i.v., day 9 post Rx): 24.90 g and 25.30 g and 25.00 g | Body weight, group mean ([2]; 10 mg/kg single bolus i.v., day 9 post injections): 25.1 g | Body weight of individual mice ([2]; 10 mg/kg single bolus i.v., day 11 post Rx): 24.30 g (2×) and 25.10 g | Body weight, group mean ([2]; 10 mg/kg single bolus i.v., day 11 post injections): 24.6 g | Body weight of individual mice ([2]; 10 mg/kg single bolus i.v., day 14 post Rx): 25.80 g and 25.60 g and 25.70 g | Body weight, group mean ([2]; 10 mg/kg single bolus i.v., day 14 post injections): 25.7 g | Body weight of individual mice ([2]; 20 mg/kg single bolus i.v., day 0 post Rx): 27.40 g and 26.20 g and 21.00 g | Body weight, group mean ([2]; 20 mg/kg single bolus i.v., day 0 post injections): 24.9 g | Body weight of individual mice ([2]; 20 mg/kg single bolus i.v., day 1 post Rx): 28.80 g and 27.50 g and 21.40 g | Body weight, group mean ([2]; 20 mg/kg single bolus i.v., day 1 post injections): 25.9 g | Body weight of individual mice ([2]; 20 mg/kg single bolus i.v., day 2 post Rx): 29.30 g and 29.00 g and 22.10 g | Body weight, group mean ([2]; 20 mg/kg single bolus i.v., day 2 post injections): 26.8 g | Body weight of individual mice ([2]; 20 mg/kg single bolus i.v., day 4 post Rx): 30.20 g and 31.00 g | Body weight, group mean ([2]; 20 mg/kg single bolus i.v., day 4 post injections): 28.1 g | Body weight of individual mice ([2]; 20 mg/kg single bolus i.v., day 7 post Rx): 29.60 g and 32.00 g and 24.00 g | Body weight, group mean ([2]; 20 mg/kg single bolus i.v., day 7 post injections): 28.5 g | Body weight of individual mice ([2]; 20 mg/kg single bolus i.v., day 9 post Rx): 30.80 g and 31.70 g and 23.40 g | Body weight, group mean ([2]; 20 mg/kg single bolus i.v., day 9 post injections): 28.6 g
